Source: US20230272099A1 (Chugai, published 2023)

T1: human FcgRIIa type R extracellular domain (human, UniProt P12318 34-217)
T1 construct: extracellular domain; also called hFcgRIIaR
T1 sequence (looked up): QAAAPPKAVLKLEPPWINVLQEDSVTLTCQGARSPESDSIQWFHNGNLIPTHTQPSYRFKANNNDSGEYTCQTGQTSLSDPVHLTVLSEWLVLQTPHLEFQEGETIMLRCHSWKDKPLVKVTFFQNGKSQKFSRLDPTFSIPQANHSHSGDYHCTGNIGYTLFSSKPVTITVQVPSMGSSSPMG

T2: human FcgRIIb extracellular domain (human, UniProt P31994 43-217)
T2 construct: extracellular domain; also called hFcgRIIb
T2 sequence (looked up): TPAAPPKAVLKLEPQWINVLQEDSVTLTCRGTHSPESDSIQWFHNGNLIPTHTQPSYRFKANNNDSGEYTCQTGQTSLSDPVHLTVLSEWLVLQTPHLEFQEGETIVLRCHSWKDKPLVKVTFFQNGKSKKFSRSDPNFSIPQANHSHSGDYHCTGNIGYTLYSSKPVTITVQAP

T3: human FcgRIIa type H extracellular domain (human, UniProt P12318 34-217)
T3 construct: extracellular domain; also called hFcgRIIaH
T3 sequence (looked up): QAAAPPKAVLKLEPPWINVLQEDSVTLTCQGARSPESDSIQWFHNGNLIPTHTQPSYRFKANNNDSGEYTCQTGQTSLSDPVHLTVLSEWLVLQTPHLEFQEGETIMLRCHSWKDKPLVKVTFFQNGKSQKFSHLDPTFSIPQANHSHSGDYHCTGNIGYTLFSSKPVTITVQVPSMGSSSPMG


Legend:
[1] = target: human FcRn (human, UniProt P55899 24-290; P61769 21-119); assay: SPR 25C pH 6.0, steady state
Sequence of human FcRn (P55899 24-290 limits assumed, chain 1 of 2): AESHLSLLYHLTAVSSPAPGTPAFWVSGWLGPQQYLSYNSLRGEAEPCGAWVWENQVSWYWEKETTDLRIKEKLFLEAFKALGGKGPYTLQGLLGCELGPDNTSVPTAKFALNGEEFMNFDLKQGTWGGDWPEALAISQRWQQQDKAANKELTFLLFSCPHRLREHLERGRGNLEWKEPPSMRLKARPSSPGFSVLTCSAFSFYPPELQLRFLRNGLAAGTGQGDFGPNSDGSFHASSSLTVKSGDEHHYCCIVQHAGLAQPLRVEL
Sequence of human FcRn (P61769 21-119 limits assumed, chain 2 of 2): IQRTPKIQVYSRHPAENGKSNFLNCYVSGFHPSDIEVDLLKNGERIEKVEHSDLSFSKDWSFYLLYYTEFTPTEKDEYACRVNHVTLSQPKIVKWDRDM
In short: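 Antibody (~400 RU) captured on anti-Fab-lambda sensor chip, human FcRn injected as analyte.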

[2] = target: T1, human FcgRIIa type R extracellular …; assay: SPR 25C
[3] = target: T4, human FcgRIIIa F158 extracellular domain (human, UniProt P08637 17-208); assay: SPR 25C
T4 construct: extracellular domain; also called hFcgRIIIaF
T4 sequence (P08637 17-208): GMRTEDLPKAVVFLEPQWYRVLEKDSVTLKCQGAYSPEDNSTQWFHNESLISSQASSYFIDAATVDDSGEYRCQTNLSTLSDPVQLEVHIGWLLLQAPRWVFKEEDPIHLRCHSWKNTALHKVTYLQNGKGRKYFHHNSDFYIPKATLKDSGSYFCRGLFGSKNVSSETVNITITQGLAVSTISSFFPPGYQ

[4] = target: T5, human FcgRIIIa V158 extracellular domain (human, UniProt P08637 17-208); assay: SPR 25C
T5 construct: extracellular domain; also called hFcgRIIIaV
T5 sequence (P08637 17-208 F176V): as the sequence (P08637 17-208) above, with F160V counted along it

[5] = target: T2, human FcgRIIb extracellular domain; assay: SPR 25C
[6] = target: T6, human FcgRIa extracellular domain (human, UniProt P12314 16-292); assay: SPR 25C
T6 construct: extracellular domain; also called hFcgRIa
T6 sequence (P12314 16-292): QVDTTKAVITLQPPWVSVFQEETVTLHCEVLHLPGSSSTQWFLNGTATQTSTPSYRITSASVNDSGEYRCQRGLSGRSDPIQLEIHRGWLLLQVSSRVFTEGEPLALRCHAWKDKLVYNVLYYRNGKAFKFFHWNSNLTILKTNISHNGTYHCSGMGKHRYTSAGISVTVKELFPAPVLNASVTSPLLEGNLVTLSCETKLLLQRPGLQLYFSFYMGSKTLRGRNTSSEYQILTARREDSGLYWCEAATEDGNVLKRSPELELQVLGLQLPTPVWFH

[7] = target: T3, human FcgRIIa type H extracellular …; assay: SPR 25C

Binder | Kd [1] | binding per 1RU antibody [2] | relative binding (A375-G1T3/B167-Lamlib=1) [2] | binding per 1RU antibody [3] | relative binding (A375-G1T3/B167-Lamlib=1) [3] | binding per 1RU antibody [4] | relative binding (A375-G1T3/B167-Lamlib=1) [4] | binding per 1RU antibody [5] | relative binding (A375-G1T3/B167-Lamlib=1) [5] | binding per 1RU antibody [6] | relative binding (A375-G1T3/B167-Lamlib=1) [6] | binding per 1RU antibody [7] | relative binding (A375-G1T3/B167-Lamlib=1) [7]
A375-SCF030/B167-Lamlib (antibody, human IgG1, lambda) heavy: EVQLVESGGGLVKPGGSLRLSCAASGFTFSTFTMNWVRQAPGKGLEWVSSISSKSTYIEYADSFKVRFTISRDNAKNSLYLQMNSLRAEDTAVYYCARYGAKNFLNWVFDYWGQGTLVTVSSASTKGPSVFPLAPSSKSTSGGTAALGCLVKDYFPEPVTVSWNSGALTSGVHTFPAVLQSSGLYSLSSVVTVPSSSLGTQTYICNVNHKPSNTKVDKKVEPKSCDKTHTCPPCPAPELWNGPSVFLFPPKPKDTLMISRTPEVTCVVVDVSDEDPEVKFNWYVDGVEVHNAKTKPREELYNSTYRVVSVLTVLHRDWLNGKEYKCKVSNTALPKPIEKTISKAKGQRREPQVYTLPPSREEMTKNQVSLTCLVKGFYPSDIAVEWESNGQPENNYKTTPPVLDSDGSFFLYSKLTVDKSRWQQGNVFSCSVMHEALHNHYTQKSLSLSP light: QSALTQPPSASGSPGQTVTISCTGTRYDVGYYEYVSWYQQHPGKAPKLMIYETSKRLSGVPDRFSGSKSGNTASLTVSGLQAEDEADYYCSSYRYEHQVSFGGGTKLTVLGQPKAAPSVTLFPPSSEELQANKATLVCLISDFYPGAVTVAWKADSSPVKAGVETTTPSKQSNNKYAASSYLSLTPEQWKSHRSYSCQVTHEGSTVEKTVAPTECS | 863 nM | 0.0532 RU | 1.15 | 0.0017 RU | 0.08 | 0.002 RU | 0.03 | 0.0532 RU | 4.85 | 0.002 RU | 0.02 | 0.0533 RU | 0.94
A375-SCF039/B167-Lamlib (antibody, human IgG1, lambda) heavy: EVQLVESGGGLVKPGGSLRLSCAASGFTFSTFTMNWVRQAPGKGLEWVSSISSKSTYIEYADSFKVRFTISRDNAKNSLYLQMNSLRAEDTAVYYCARYGAKNFLNWVFDYWGQGTLVTVSSASTKGPSVFPLAPSSKSTSGGTAALGCLVKDYFPEPVTVSWNSGALTSGVHTFPAVLQSSGLYSLSSVVTVPSSSLGTQTYICNVNHKPSNTKVDKKVEPKSCDKTHTCPPCPAPELWNGPSVFLFPPKPKDTLMISRTPEVTCVVVDVSDEDPEVKFNWYVDGVEVHNAKTKPREELYNSTYRVVSVLTVLHQDWLNGKEYKCKVSNTALPKPIEKTISKAKGQRREPQVYTLPPSREEMTKNQVSLTCLVKGFYPSDIAVEWESNGQPENNYKTTPPVLDSDGSFFLYSKLTVDKSRWQQGNVFSCSVMHEALHNHYTQKSLSLSP light: QSALTQPPSASGSPGQTVTISCTGTRYDVGYYEYVSWYQQHPGKAPKLMIYETSKRLSGVPDRFSGSKSGNTASLTVSGLQAEDEADYYCSSYRYEHQVSFGGGTKLTVLGQPKAAPSVTLFPPSSEELQANKATLVCLISDFYPGAVTVAWKADSSPVKAGVETTTPSKQSNNKYAASSYLSLTPEQWKSHRSYSCQVTHEGSTVEKTVAPTECS | 1090 nM | 0.0542 RU | 1.17 | 0.0008 RU | 0.04 | 0.0013 RU | 0.02 | 0.0531 RU | 4.85 | 0.0018 RU | 0.02 | 0.0535 RU | 0.94
A375-SCF033/B167-Lamlib (antibody, human IgG1, lambda) heavy: EVQLVESGGGLVKPGGSLRLSCAASGFTFSTFTMNWVRQAPGKGLEWVSSISSKSTYIEYADSFKVRFTISRDNAKNSLYLQMNSLRAEDTAVYYCARYGAKNFLNWVFDYWGQGTLVTVSSASTKGPSVFPLAPSSKSTSGGTAALGCLVKDYFPEPVTVSWNSGALTSGVHTFPAVLQSSGLYSLSSVVTVPSSSLGTQTYICNVNHKPSNTKVDKKVEPKSCDKTHTCPPCPAPEYLGDDSVFLFPPKPKDVLMISRTPEVTCVVVDVSHEDPEVKFNWYVDGVEVHNAKTKPREEQYNSTYRVVSVLPVLHRDWLNGKEYKCKVSNKALPKPIEKTISKAKGQRREPQVYTLPPSREEMTKNQVSLTCLVKGFYPSDIAVEWESNGQPENNYKTTPPVLDSDGSFFLYSKLTVDKSRWQQGNVFSCSVMHEALHNHYTQKSLSLSP light: QSALTQPPSASGSPGQTVTISCTGTRYDVGYYEYVSWYQQHPGKAPKLMIYETSKRLSGVPDRFSGSKSGNTASLTVSGLQAEDEADYYCSSYRYEHQVSFGGGTKLTVLGQPKAAPSVTLFPPSSEELQANKATLVCLISDFYPGAVTVAWKADSSPVKAGVETTTPSKQSNNKYAASSYLSLTPEQWKSHRSYSCQVTHEGSTVEKTVAPTECS | 874 nM | 0.0255 RU | 0.55 | 0 RU | 0 | 0.0002 RU | 0 | 0.0979 RU | 8.94 | 0.0033 RU | 0.04 | 0.0103 RU | 0.18
A375-SCF032/B167-Lamlib (antibody, human IgG1, lambda) heavy: EVQLVESGGGLVKPGGSLRLSCAASGFTFSTFTMNWVRQAPGKGLEWVSSISSKSTYIEYADSFKVRFTISRDNAKNSLYLQMNSLRAEDTAVYYCARYGAKNFLNWVFDYWGQGTLVTVSSASTKGPSVFPLAPSSKSTSGGTAALGCLVKDYFPEPVTVSWNSGALTSGVHTFPAVLQSSGLYSLSSVVTVPSSSLGTQTYICNVNHKPSNTKVDKKVEPKSCDKTHTCPPCPAPEYLGGDSVFLFPPKPKDVLMISRTPEVTCVVIDVSHEDPEVKFNWYVDGVEVHNAKTKPREEQYNSTYRVVSVLPVLHRDWLNGKEYKCKVSNKALPKPIEKTISKAKGQRREPQVYTLPPSREEMTKNQVSLTCLVKGFYPSDIAVEWESNGQPENNYKTTPPVLDSDGSFFLYSKLTVDKSRWQQGNVFSCSVMHEALHNHYTQKSLSLSP light: QSALTQPPSASGSPGQTVTISCTGTRYDVGYYEYVSWYQQHPGKAPKLMIYETSKRLSGVPDRFSGSKSGNTASLTVSGLQAEDEADYYCSSYRYEHQVSFGGGTKLTVLGQPKAAPSVTLFPPSSEELQANKATLVCLISDFYPGAVTVAWKADSSPVKAGVETTTPSKQSNNKYAASSYLSLTPEQWKSHRSYSCQVTHEGSTVEKTVAPTECS | 966 nM | -0.0004 RU | -0.01 | -0.0007 RU | -0.03 | -0.0007 RU | -0.01 | 0.0782 RU | 7.14 | 0.0049 RU | 0.06 | 0.003 RU | 0.05
